The subject of this series is RepA D76V (plasmid RA3 (IncU, isolated from Aeromonas hydrophila)). Description: EMSA. Conditions: 25 mM Tris-HCl pH 8.0, 5 mM MgCl2, 40 mM NaCl, 0.5 mg/mL BSA, 30 min at 37 C, 20 uL; 30 ng PCR fragment (0.8% agarose) or 150 ng ds oligo (10% native PAGE) ….

For the substance repAp 256 bp PCR fragment, the binding signal (fold lower affinity than WT RepA) worked out at 5.

The values above are taken from publication PMC9455977, “Deciphering the Regulatory Circuits of RA3 Replication Module - Mechanisms of the Copy Number Control”.
